Reference: the nanobody polyreactivity screen of Harvey et al. (2022)

Test: yeast display, Sf9 membrane polyspecificity reagent, FACS + sequencing; frameworks hold sequencing errors
Method in brief: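 In a synthetic yeast display library (Saccharomyces cerevisiae BJ5465), nanobody expression was induced with galactose for 36–48 hours. FACS gates were set low and high (top ~1%) using anti-HA fluorescence for expression and streptavidin fluorescence for binding of the Sf9 membrane reagent. Each polyreactivity label is drawn from the gate of origin.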

Sequence	polyreactivity (PSR sort gate)
QVQLVESGGGLVQAGGSLRLSCAASGTIFTTYAIGWYRQEPGKERELVSAISGRGSDTYYADSVKGRFTISRDNAMNTVYLQMNSLKPEDTAVYYCNARRSRAYHGRSFEYWGQGTQVTLSS	low polyreactivity
QVQLVESGGGLVQAGGSLRLSCAASGTIFVPYAMGWYRQAPGKERELVAVITSGGSTYYADSVKGRFTISRDNAKNTVYLQMNSLNPEDTAVYYCIADLYYVWSTLSQFDYWGQGTHVTVSS	low polyreactivity
QVQLVESGGGLVQAGGSLRLSCAASGTIFYDNDMGWYRQAPGKERELVAAISWSASDTYYADSVKGRFTISRDNAKNTVYLHINILKPEDTAVYYCNAEVYVWYFVYSALDYWGLGTQVTVSS	low polyreactivity
QVQLVESGGGLVQAGGSLRLSCAASGTIFYVYAMGWYRQAPGKERELVDAINTSGGSTFYADSVKGRFTISRDNAKNTVYLHMKSLKPEDTAVYYCAAERYRYRSTDTMGYWGQGSQVTVSS	low polyreactivity
QVQLVESGGGLVQAGGSLRLSCAASGTIIVWNAMGRYRQARGKERELVASITSGASTNYADSVKGRFTISRDNAKNTVYLQMNSLKPEDTAVYYCNAGPRRTISRSRLRSAPKYDYWGQGTQVTVSS	low polyreactivity
QVQLVESGGGLVQAGGSLRLSCAASGTIIYLNAMAWYRQAPGKERELVAAITSGGSTYYADSVKGRFTISRDNAKNTVYVQMNSLKPEDTAVYYCAAFVWSGWGHWFYFWGQGTQVTVSS	high polyreactivity
QVQLVESGGGLVQAGGSLRLSCAASGTISAYAMGWYRQAPGKERELVAAITRTGGSTYYADSVKGRFTISRDNAKNTVYLQMNSLKPEDTAVYYCATEFRYREFYYWGQGTQVTVSS	high polyreactivity
QVQLVESGGGLVQAGGSLRLSCAASGTIVGYAMGWYRQAPGKERELVASNSWRVGSTYYADSVKGRFTISRDNAKNTVYLQMISLKPEDTAVYYCNAASYVFLYYPGGIYRDDYWGQGTQVTVSS	low polyreactivity
QVQLVESGGGLVQAGGSLRLSCAASGTLSSYAMGWYRQAAGKERELVAALSLSGGSTYADSVKGRFTISRDNAYNTVYLQMNSLKPEDTAVYYCAKDWDVDITWSFSIYNYWGQGTQVTVSS	low polyreactivity
QVQLVESGGGLVQAGGSLRLSCAASGTLSSYAMGWYRQAPGKERELVAAISLSGGSTYYADSVKGRFTISRDNAKNTVYLQMNSLKPEDTAVYYCAKRPKRTYYPHIGYDYWGQGTQVTVSS	low polyreactivity
QVQLVESGGGLVQAGGSLRLSCAASGTTFAKNAMGWYRQAPGKERELVAAISWSGGSTYYADSVKGRFTISRDNAKNSVYLQMNSLKPVDTAVYYCAADSPRYGGYGYWGQGTQVTVSS	low polyreactivity
QVQLVESGGGLVQAGGSLRLSCAASGTTISAYDMGRYRQAPGKEREMVAAITWIGGNTYYADSVKGRFTISRDNAKNTVYLQMNSLKPEDTAVYYCAAEEVPYDRDMDYWGQGTKVTVSS	low polyreactivity
QVQLVESGGGLVQAGGSLRLSCAASGTTIYTNAKGWYRQAPGKEREFVAAISWSGSSTYADSVKGRFTISRDNAKNTFYLQMNSLKPEDTAVYYCAADWFKQRTDYYWGQGTQVTVSS	low polyreactivity
QVQLVESGGGLVQAGGSLRLSCAASGTYRLYAMGWYRQAPGKEREFVAAITYGGGGTYYADSVKGRFTISRDNAKNTVYLQMNSLKPEDTAVYYCAADLYLTDTDVEYYYWGQGTKVTVSS	low polyreactivity
QVQLVESGGGLVQAGGSLRLSCAASGTYYLYAMGWYRQAPRKERELVAAISGSGSTNYADSVKGRFTISRDNAKNTVYLQMNSLKPEDTAVYYCAAYQRYVSVTGARYEYDYWGQGTQVTVSS	low polyreactivity
QVQLVESGGGLVQAGGSLRLSCAASGVIFFSYAMGWYRQAPGKERELVASISRSGGTTYYADSVKGRFTISRDNGKNTVYLQMNSLKPEDTAVYYCAARTYSYYSRDYCGQGTQVTVSS	high polyreactivity
QVQLVESGGGLVQAGGSLRLSCAASGVIFTFYAMGWYRQAPGKEREFVASIDWGDGSTYYADSVKGRFTISRDNAKNTVYLQMNSLKPEDTAVYYCAHDSDGYVCDTEYDYWGQGTQVTVSS	low polyreactivity
QVQLVESGGGLVQAGGSLRLSCAASGVYAMGWYRQAPGQEREWVAAITSVGSTNYADSVKGRFTISRDNAKNTVYLQMNSLKPEDTAVFYCNTDRDTDELDYWGQGTQVTVSS	low polyreactivity
QVQLVESGGGLVQAGGSLRLSCAASGWYRQAPGKERELVAAITYSGGSTYYADSVKGRFTISRDNAKNTVYLQMNSLKPEDTAVYYCAKQGLWIFVVVEMDYWGQGTQVTVSS	low polyreactivity
QVQLVESGGGLVQAGGSLRLSCAASGYIFADNDMGWYRQAPGKERELVASIDWSGGSTYYADSVKGRFTISRDNAKNTVYLQMNSLKPEDTAVYYCNKGAFGGVSSYIYWAFYSGYDYWGLGTQVTVSS	low polyreactivity
QVQLVESGGGLVQAGGSLRLSCAASGYIFAGNAMGWYRQAPGKERELVAAINSDGRTYYADSVRGRFTISRDNAKNSVYLQMNSLKPEDTAVYYCAVVRFYLGDYLVEFDYWGQGTQVTVSS	low polyreactivity
QVQLVESGGGLVQAGGSLRLSCAASGYIFAPYAMGWYRQAPGKERELVAAISSGGSTYYADSVKGRFTISRDNAKNTVYLQKNSQKPEDPAVYYCAKRYIYSYYWGQGTQVTVSS	high polyreactivity
QVQLVESGGGLVQAGGSLRLSCAASGYIFCGYAMGWYRQAPGKERELVAAINRGGSTYYADSVKGRFTISRDNAKNTVYLQMNSLKPEDTAVYYCAARLLYYNSIKRYYWGQGTQVTVSS	high polyreactivity
QVQLVESGGGLVQAGGSLRLSCAASGYIFDDNAMGWYRQAPGKERELVATNYADSVKGRFTISRDNAKNTVYLQMNSLKPEDTAVYYCAKDVWQTYTDLDHWGQGTQVTVSS	low polyreactivity
QVQLVESGGGLVQAGGSLRLSCAASGYIFDNNAMGWYRQAPGKERELVAAINWSGGSTYYADSVKGRFTISRDNAKNTVYLQMNSLKPEDTAVYYCNKLIYGIYYPERYAYDYWGQGTQVTVSS	low polyreactivity
QVQLVESGGGLVQAGGSLRLSCAASGYIFDVYAMGWYRQAPGKERELVATISSGTGITKYADSVKGRFTISRDNAKNTVYLQMNSLKPEDTAVYYCAADYASLSWLGFYYWGQGTQVTVSS	low polyreactivity
QVQLVESGGGLVQAGGSLRLSCAASGYIFEYYAMGWYRQAPGKERELVAAISVGGGSTYYADSVKGRFTISRDNAKNTVYLQMNSLKPEDTAVYYCAAVQLYQKHQITYVAHEYWGQGTQVTVSS	low polyreactivity
QVQLVESGGGLVQAGGSLRLSCAASGYIFFANAMGWYRPAPGKERELVAAISSDGRTYYADSVKGRFTISRDNAKNTVYLQMNRLKPEDTAVYYCAAYFSGLTYGYYVAGYDYWGQGTQVTVSS	low polyreactivity
QVQLVESGGGLVQAGGSLRLSCAASGYIFFGNAMGWYRQAPGKERELVAAIRRRGTSTYYADSVKGRFTISRDNAKNTVYLQMNSLKPEDTAVYYCAADVVRSNFYGTFLYDYDYCGQGTQVTVSS	low polyreactivity
QVQLVESGGGLVQAGGSLRLSCAASGYIFFRNAMGWYRQAPGKEREFVAAIRFSGGNTYYADSVKGRFTISRDNAKNTVYLQMNSLKPEDTAFYYCAADKVRQGHYWTPMEYWGQGTQVTVSS	low polyreactivity
